# B1: human quinone reductase 2 (hQR2) (Homo sapiens) (protein)
# chain: MAGKKVLIVYAHQEPKSFNGSLKNVAVDELSRQGCTVTVSDLYAMNLEPRATDKDITGTLSNPEVFNYGVETHEAYKQRSLASDITDEQKKVREADLVIFQFPLYWFSVPAILKGWMDRVLCQGFAFDIPGFYDSGLLQGKLALLSVTTGGTAEMYTKTGVNGDSRYFLWPLQHGTLHFCGFKVLAPQISFAPEIASEEERKGMVAAWSQRLQTIWKEEPIPCTAHWHFGQ
# notes: 6his-hQR2
# Substrate: CC1=CC(=O)c2ccccc2C1=O
# Assay: enzyme kinetics (KM) by BNAH fluorescence decrease; reference substrate
# Assay type: biochemical, Homo sapiens
# Conditions: FAD; pH 8.5; 37.0 °C
protein,measurement,value
B1,Km,10 ± 1 µM

# Reference: publication PMC6155775, “Role of Quinone Reductase 2 in the Antimalarial Properties of Indolone-Type Derivatives” (Molecules : A Journal of Synthetic Chemistry and Natural …, 2017)
